Data reported in US20050148500A1, “Dopaminergic stimulatory factor” (priority 2001, published 2005).
Entries after “also recorded” stand apart in the source; their conditions may differ.

System: MN9D cells
Test: Dopamine content of MN9D cells in monolayer culture after incubation with protein (HPLC)
Type: cell-based, mouse
Protocol: […] The MN9D cells on each plate were then collected in 10 ml of CMF, transferred to 15 ml centrifuge tubes and centrifuged at 1000×g for 5 min. The supernatant was removed and 600 μl of 0.5 N perchloric acid was added to the cell pellet which was then sonicated on ice for 10-15 s. The cell extract was centrifuged at 4000×g for 30 min and the supernatant stored at −80° C. for subsequent high pressure liquid chromatography (HPLC) analysis of MN9D cell dopamine content. The pellet was stored at −20° C. for subsequent protein analysis.
A second experiment was then conducted to determine whether this effect was due to a change in the doubling time (24 h) of the MN9D cells with increased cell production or was the result of an increase in cellular dopamine. […] Cells were removed from the plates and cell numbers determined by counting in a hematocytometer. Dopamine content was determined by HPLC analysis. The MN9D cells can be differentiated by exposure to either sodium butyrate or dibutryl cyclic adenosine monophosphate for 5 days (Choi et al., 1991) resulting in a reduction in the rate of cell division and the production of extensive cellular processes.
Experiment involved 24 hour incubation with X61 protein(s). X61 protein(s) was incubated with 100 microliter of concentrated monoclonal antibody against 14-3-3 (anti-14-3-3) obtained from Santa Cruz Biotechnology for 15 minutes at room temperature prior to addition to MN9D cells grown on 6-well plates. Data given as ng dopamine per well, n=3. The reason for the lower amounts of dopamine seen in this experiment as compared to that in Tables 2 and 3 is related to differences in time of exposure and plate size. X61 protein(s) were also preincubated with an antibody against neuronal nuclear protein as a control. This antibody had no effect on X61 protein(s) activity.
After this period, the MN9D cells on each plate are collected in 10 ml of CMF, transferred to 15 ml centrifuge tubes and centrifuged at 1000×g for 5 min. The supernatant is removed and 600 μl of 0.5N perchloric acid is added to the cell pellet which is then sonicated on ice for 10-15 seconds. The material obtained is centrifuged at 4000×g for 30 minutes and the supernatant stored at −80° C. MN9D cell DA content is determined by reverse phase high pressure liquid chromatography with electrochemical detection (HPLC-ED) as previously described (Heller et al., 1993). The pellet is stored at −20° C. for subsequent protein analysis.

B1: glial derived neurotrophic factor (protein, UniProt P39905 78-211, looked up)
Glial cell line-derived …: SPDKQMAVLPRRERNRQAAAANPENSRGKGRRGQRGKNRGCVLTAIHLNVTDLGLGYETKEELIFRYCSGSCDAAETTYDKILKNLSRNRRLVSDKVGQACCRPIAFDDDLSFLDDNLVYHILRKHSAKRCGCI
1 ng/ml for 5 days
  effect on MN9D dopamine levels versus controls: significantly lower; also recorded: significant decrease
1 ng/ml for 5 days, control 467±18.4
  MN9D DA levels: 356.0±14.4 ng/plate

B2: ciliary neurotrophic factor (protein, UniProt P26441 1-200, looked up)
Ciliary neurotrophic factor: MAFTEHSPLTPHRRDLCSRSIWLARKIRSDLTALTESYVKHQGLNKNINLDSADGMPVASTDQWSELTEAERLQENLQAYRTFHVLLARLLEDQQVHFTPTEGDFHQAIHTLLLQVAAFAYQIEELMILLEYKIPRNEADGMPINVGDGGLFEKKLWGLKVLQELSQWTVRSIHDLRFISSHQTGIPARGSHYIANNKKM
100 ng/ml, 24 hour treatment
  effect on MN9D dopamine levels: no significant effect
100 ng/ml, 24 hour treatment, controls 157.8±3.3
  MN9D DA levels: 156.5±10.9 ng/plate

B3: transforming growth factor β2 (protein, UniProt P61812 303-414, looked up)
Transforming growth factor …: ALDAAYCFRNVQDNCCLRPLYIDFKRDLGWKWIHEPKGYNANFCAGACPYLWSSDTQHSRVLSLYNTINPEASASPCCVSQDLEPLTILYYIGKTPKIEQLSNMIVKSCKCS
  effect on MN9D DA levels: without effect
